US7304127

These binders were tested against HIV-1LAI envelope gp120 labeled with radioactive iodine (HIV-1 LAI), P03377 (assay: 125I-gp120, peptide array).
MDYQVSSPIYDINYYTSE (modifications not checked) [CCR5 1-18] was tested, and the counts minus background (counts per 20 min) was 735. Binder YSLVFIFGFVGNMLVILI (modifications not checked) [CCR5 37-54] has a counts minus background (counts per 20 min) of 347. GLVILVMGYQKKLRSMTD (modifications not checked) [CXCR4 57-74] gave a counts minus background (counts per 20 min) of 157. LVMGYQKKLRSMTDKYRL (modifications not checked) [CXCR4 61-78] was tested, and the counts minus background (counts per 20 min) was 105. YQKKLRSMTDKYRLHLSV (modifications not checked) [CXCR4 65-82] showed a counts minus background (counts per 20 min) of 99. In the case of LRSMTDKYRLHLSVADLL (modifications not checked) [CXCR4 69-86], the counts minus background (counts per 20 min) is reported as 160. For TDKYRLHLSVADLLFVIT (modifications not checked) [CXCR4 73-90], the counts minus background (counts per 20 min) was 92. In the case of RLHLSVADLLFVITLPFW (modifications not checked) [CXCR4 77-94], the counts minus background (counts per 20 min) is reported as 136. SVADLLFVITLPFWAVDA (modifications not checked) [CXCR4 81-98] showed a counts minus background (counts per 20 min) of 253. LLFVITLPFWAVDAVANW (modifications not checked) [CXCR4 85-102] was tested, and the counts minus background (counts per 20 min) was 63. ITLPFWAVDAVANWYFGN (modifications not checked) [CXCR4 89-106] was tested, and the counts minus background (counts per 20 min) was 130. FWAVDAVANWYFGNFLCK (modifications not checked) [CXCR4 93-110] showed a counts minus background (counts per 20 min) of 66. Work on FIFGFVGNMLVILILINC (modifications not checked) [CCR5 41-58] yielded a counts minus background (counts per 20 min) of 343. With DAVANWYFGNFLCKAVHV (modifications not checked) [CXCR4 97-114] the counts minus background (counts per 20 min) was 112. NWYFGNFLCKAVHVIYTV (modifications not checked) [CXCR4 101-118] was tested, and the counts minus background (counts per 20 min) was 96. GNFLCKAVHVIYTVNLYS (modifications not checked) [CXCR4 105-122] showed a counts minus background (counts per 20 min) of 231. In the case of CKAVHVIYTVNLYSSVLI (modifications not checked) [CXCR4 109-126], the counts minus background (counts per 20 min) is reported as 243. HVIYTVNLYSSVLILAFI (modifications not checked) [CXCR4 113-130] showed a counts minus background (counts per 20 min) of 118. In the case of TVNLYSSVLILAFISLDR (modifications not checked) [CXCR4 117-134], the counts minus background (counts per 20 min) is reported as 242. YSSVLILAFISLDRYLAI (modifications not checked) [CXCR4 121-138] was tested, and the counts minus background (counts per 20 min) was 157. LILAFISLDRYLAIVHAT (modifications not checked) [CXCR4 125-142] was tested, and the counts minus background (counts per 20 min) was 107. In the case of FISLDRYLAIVHATNSQR (modifications not checked) [CXCR4 129-146], the counts minus background (counts per 20 min) is reported as 91. Work on DRYLAIVHATNSQRPRKL (modifications not checked) [CXCR4 133-150] yielded a counts minus background (counts per 20 min) of 168. For FVGNMLVILILINCKRLK (modifications not checked) [CCR5 45-62], the counts minus background (counts per 20 min) was 62. Work on AIVHATNSQRPRKLLAEK (modifications not checked) [CXCR4 137-154] yielded a counts minus background (counts per 20 min) of 73. With ATNSQRPRKLLAEKVVYV (modifications not checked) [CXCR4 141-158] the counts minus background (counts per 20 min) was 78. QRPRKLLAEKVVYVGVWI (modifications not checked) [CXCR4 145-162] was tested, and the counts minus background (counts per 20 min) was 127. Work on KLLAEKVVYVGVWIPALL (modifications not checked) [CXCR4 149-166] yielded a counts minus background (counts per 20 min) of 89. EKVVYVGVWIPALLLTIP (modifications not checked) [CXCR4 153-170] gave a counts minus background (counts per 20 min) of 147. YVGVWIPALLLTIPDFIF (modifications not checked) [CXCR4 157-174] gave a counts minus background (counts per 20 min) of 124. Binder WIPALLLTIPDFIFANVS (modifications not checked) [CXCR4 161-178] has a counts minus background (counts per 20 min) of 182. Binder LLLTIPDFIFANVSEADD (modifications not checked) [CXCR4 165-182] has a counts minus background (counts per 20 min) of 1010. For IPDFIFANVSEADDRYIC (modifications not checked) [CXCR4 169-186], the counts minus background (counts per 20 min) was 438. For IFANVSEADDRYICDRFY (modifications not checked) [CXCR4 173-190], the counts minus background (counts per 20 min) was 267. MLVILILINCKRLKSMTD (modifications not checked) [CCR5 49-66] was tested, and the counts minus background (counts per 20 min) was 84. VSEADDRYICDRFYPNDL (modifications not checked) [CXCR4 177-194] gave a counts minus background (counts per 20 min) of 157. Work on DDRYICDRFYPNDLWVVV (modifications not checked) [CXCR4 181-198] yielded a counts minus background (counts per 20 min) of 125. ICDRFYPNDLWVVVFQFQ (modifications not checked) [CXCR4 185-202] showed a counts minus background (counts per 20 min) of 306. Binder FYPNDLWVVVFQFQHIMV (modifications not checked) [CXCR4 189-206] has a counts minus background (counts per 20 min) of 416. For DLWVVVFQFQHIMVGLIL (modifications not checked) [CXCR4 193-210], the counts minus background (counts per 20 min) was 422. With VVFQFQHIMVGLILPGIV (modifications not checked) [CXCR4 197-214] the counts minus background (counts per 20 min) was 589. FQHIMVGLILPGIVILSC (modifications not checked) [CXCR4 201-218] showed a counts minus background (counts per 20 min) of 170. MVGLILPGIVILSCYCII (modifications not checked) [CXCR4 205-222] gave a counts minus background (counts per 20 min) of 167. ILPGIVILSCYCIIISKL (modifications not checked) [CXCR4 209-226] was tested, and the counts minus background (counts per 20 min) was 192. In the case of IVILSCYCIIISKLSHSK (modifications not checked) [CXCR4 213-230], the counts minus background (counts per 20 min) is reported as 277. With LILINCKRLKSMTDIYLL (modifications not checked) [CCR5 53-70] the counts minus background (counts per 20 min) was 2. SCYCIIISKLSHSKGHQK (modifications not checked) [CXCR4 217-234] gave a counts minus background (counts per 20 min) of 259. IIISKLSHSKGHQKRKAL (modifications not checked) [CXCR4 221-238] showed a counts minus background (counts per 20 min) of 157. KLSHSKGHQKRKALKTTV (modifications not checked) [CXCR4 225-242] was tested, and the counts minus background (counts per 20 min) was 130. SKGHQKRKALKTTVILIL (modifications not checked) [CXCR4 229-246] gave a counts minus background (counts per 20 min) of 140. QKRKALKTTVILILAFFA (modifications not checked) [CXCR4 233-250] showed a counts minus background (counts per 20 min) of 283. Binder ALKTTVILILAFFACWLP (modifications not checked) [CXCR4 237-254] has a counts minus background (counts per 20 min) of 261. Work on TVILILAFFACWLPYYIG (modifications not checked) [CXCR4 241-258] yielded a counts minus background (counts per 20 min) of 323. Binder ILAFFACWLPYYIGISID (modifications not checked) [CXCR4 245-262] has a counts minus background (counts per 20 min) of 184. Binder FACWLPYYIGISIDSFIL (modifications not checked) [CXCR4 249-266] has a counts minus background (counts per 20 min) of 202. LPYYIGISIDSFILLEII (modifications not checked) [CXCR4 253-270] gave a counts minus background (counts per 20 min) of 439. In the case of NCKRLKSMTDIYLLNLAI (modifications not checked) [CCR5 57-74], the counts minus background (counts per 20 min) is reported as 25. Work on IGISIDSFILLEIIKQGC (modifications not checked) [CXCR4 257-274] yielded a counts minus background (counts per 20 min) of 734. Work on IDSFILLEIIKQGCEFEN (modifications not checked) [CXCR4 261-278] yielded a counts minus background (counts per 20 min) of 3470. ILLEIIKQGCEFENTVHK (modifications not checked) [CXCR4 265-282] gave a counts minus background (counts per 20 min) of 117. Binder IIKQGCEFENTVHKWISI (modifications not checked) [CXCR4 269-286] has a counts minus background (counts per 20 min) of 106. In the case of GCEFENTVHKWISITEAL (modifications not checked) [CXCR4 273-290], the counts minus background (counts per 20 min) is reported as 264. ENTVHKWISITEALAFFH (modifications not checked) [CXCR4 277-294] was tested, and the counts minus background (counts per 20 min) was 315. Binder HKWISITEALAFFHCCLN (modifications not checked) [CXCR4 281-298] has a counts minus background (counts per 20 min) of 163. Work on SITEALAFFHCCLNPILY (modifications not checked) [CXCR4 285-302] yielded a counts minus background (counts per 20 min) of 188.
